We go through 38 sequences from the supplement of paper PMC7877785.

The nature of this series: self-splicing fitness, log relative to wild type (ln ratio); higher = more splicing; Tetrahymena group I intron in knt gene, E. coli kanamycin selection, DiMSum; sequences stand for … in CUCUCU…GGAGGGAAAAGUUAUCAGGCAUGCACCUGGUAGCUAGUCUUUAAACCAAUAGAUUGCAUCGGUUUAAAAGGCAAGACCGUCAAAUUGCGGGAAAGGGGUCAACAGCCGUUCAGUACCAAGUCUCAGGGGAAACUUUGAGAUGGCCUUGCAAAGGGUAUGGUAAUAAGCUGACGGACAUGGUCCUAACCACGCAGCCAAGUCCUAAGUCAACAGAUCUUCUGUUGAUAUGGAUGCAGUUCACAGACUAAAUGUCGGUCGGGGAAGAUGUAUUCUUCUCAUAAGAUAUAGUCGGACCUCUCCUUAAUGGGAGCUAGCGGAUGAAGUGAUGCAACACUGGAGCCGCUGGGAACUAAUUUGUAUGCGAAAGUAUAUUGAUUAGUUUUGGAGUACUCGUGGUCG
In short, it runs like this: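 A randomised library covering all eight P1ex-region intron nucleotides was built with the intron in the knt kanamycin-resistance gene on pET-22b(+) and held in E. coli BL21(DE3). Cells were grown overnight at 37°C or 30°C on LB agar, with or without 25 μg/mL kanamycin, plus 100 μg/mL carbenicillin, 50 μM IPTG and 0.2% rhamnose, and pooled colonies were amplicon-sequenced on an Illumina HiSeq 2500. DiMSum fitness is the error-weighted combination of wild-type-normalised replicate fold changes, kanamycin versus none.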

± gives the uncertainty stated by the source.

With CGCAAGCAAUAUUACGUAUA, the “self-splicing fitness (ln)” value was -3.79 ± 0.44 (30 °C) and -3.01 ± 0.2 (37 °C).

Consider GGACAGCAAUAUUACGCAGG, for which the “self-splicing fitness (ln)” value is -1.45 ± 0.1 (30 °C) and -0.578 ± 0.11 (37 °C).

Consider UAUAAGCAAUAUUACGAUCU, for which the “self-splicing fitness (ln)” value was -1.22 ± 0.11 (30 °C) and 0.0539 ± 0.12 (37 °C).

As to CCGCAGCAAUAUUACGACUC, the “self-splicing fitness (ln)” value runs as follows: (30 °C) -3.06 ± 0.23; (37 °C) -2.02 ± 0.26.

With GCGCAGCAAUAUUACGGCAU, the “self-splicing fitness (ln)” value was -0.756 ± 0.075 (30 °C) and 0.684 ± 0.11 (37 °C).

For UUUUAGCAAUAUUACGAUCA, the “self-splicing fitness (ln)” value is -0.641 ± 0.15 (30 °C) and -0.391 ± 0.17 (37 °C).

Turning to GCUUAGCAAUAUUACGUGGG, the “self-splicing fitness (ln)” value reads like this: (30 °C) -1.53 ± 0.093; (37 °C) -1.72 ± 0.1.

For the sequence CUGCAGCAAUAUUACGGAUA, the “self-splicing fitness (ln)” value reads like this: (30 °C) -3.58 ± 0.29; (37 °C) -2.69 ± 0.25.

As for UACAAGCAAUAUUACGCUGC, the “self-splicing fitness (ln)” value was -2.03 ± 0.19 (30 °C) and -0.919 ± 0.32 (37 °C).

As to GCACAGCAAUAUUACGGUGC, the “self-splicing fitness (ln)” value is -3.09 ± 0.2 (30 °C) and -2.61 ± 0.23 (37 °C).

On to UUCUAGCAAUAUUACGAACC, for which the “self-splicing fitness (ln)” value (37 °C) is -1.8 ± 0.33.

With GCUGAGCAAUAUUACGACUA, the “self-splicing fitness (ln)” value (30 °C) is -1.55 ± 0.22 and the “self-splicing fitness (ln)” value (37 °C) is -1.72 ± 0.21.

Regarding GUCUAGCAAUAUUACGAUAG, for the setting “37 °C”, the “self-splicing fitness (ln)” value is -2.96 ± 0.27.

With AACCAGCAAUAUUACGCCUU, the “self-splicing fitness (ln)” value by setting is: (30 °C) -0.506 ± 0.053; (37 °C) 0.096 ± 0.07.

On to CCCUAGCAAUAUUACGAGAG, for which the “self-splicing fitness (ln)” value (30 °C) is -3.79 ± 0.3 and the “self-splicing fitness (ln)” value (37 °C) is -2.5 ± 0.23.

For UGGUAGCAAUAUUACGUGGU, the “self-splicing fitness (ln)” value (30 °C) was -4.36 ± 0.28 and the “self-splicing fitness (ln)” value (37 °C) is -2.7 ± 0.36.

As to GUCCAGCAAUAUUACGAGGC, the “self-splicing fitness (ln)” value runs as follows: (30 °C) -2.32 ± 0.22; (37 °C) -2.35 ± 0.37.

With CGCGAGCAAUAUUACGCGAA, the “self-splicing fitness (ln)” value (30 °C) was -3.88 ± 0.43 and the “self-splicing fitness (ln)” value (37 °C) is -2.65 ± 0.23.

Take CCGCAGCAAUAUUACGGAUU: the “self-splicing fitness (ln)” value (30 °C) was -3.8 ± 0.14 and the “self-splicing fitness (ln)” value (37 °C) is -2.75 ± 0.16.

For UUAUAGCAAUAUUACGCGCA, the “self-splicing fitness (ln)” value was -1.06 ± 0.19 (30 °C) and -0.728 ± 0.2 (37 °C).

Regarding CCUGAGCAAUAUUACGGGGU, the “self-splicing fitness (ln)” value was -3.44 ± 0.24 (30 °C) and -3.06 ± 0.27 (37 °C).

Turning to UGGCAGCAAUAUUACGAACG, the “self-splicing fitness (ln)” value (30 °C) was -0.0867 ± 0.16 and the “self-splicing fitness (ln)” value (37 °C) amounted to 0.145 ± 0.2.

In the case of UCGUAGCAAUAUUACGUGUU, the “self-splicing fitness (ln)” value was -3.06 ± 0.21 (30 °C) and -2.46 ± 0.19 (37 °C).

For the sequence UAGCAGCAAUAUUACGAUUC, the “self-splicing fitness (ln)” value is -3.06 ± 0.14 (30 °C) and -2.94 ± 0.15 (37 °C).

Regarding GGUCAGCAAUAUUACGGAGU, the “self-splicing fitness (ln)” value reads like this: (30 °C) -0.947 ± 0.086; (37 °C) 0.0968 ± 0.12.

For ACCAAGCAAUAUUACGAGAU, the “self-splicing fitness (ln)” value (30 °C) was -3.84 ± 0.13 and the “self-splicing fitness (ln)” value (37 °C) is -2.65 ± 0.16.

Turning to AGGUAGCAAUAUUACGAAGA, the “self-splicing fitness (ln)” value (30 °C) was -2.84 ± 0.03 and the “self-splicing fitness (ln)” value (37 °C) was -1.83 ± 0.038.

AAUCAGCAAUAUUACGGCUA: the “self-splicing fitness (ln)” value is, setting by setting: (30 °C) -0.0319 ± 0.079; (37 °C) 0.406 ± 0.094.

For CCCGAGCAAUAUUACGAUAA, the “self-splicing fitness (ln)” value (30 °C) is -1.81 ± 0.23 and the “self-splicing fitness (ln)” value (37 °C) is -2.73 ± 0.25.

UCCGAGCAAUAUUACGUCAU: the “self-splicing fitness (ln)” value runs as follows: (30 °C) -3.59 ± 0.27; (37 °C) -2.75 ± 0.44.

Take UUCCAGCAAUAUUACGCUGC: the “self-splicing fitness (ln)” value was -3.79 ± 0.28 (30 °C) and -2.09 ± 0.4 (37 °C).

Take ACCAAGCAAUAUUACGACCU: the “self-splicing fitness (ln)” value runs as follows: (30 °C) -0.493 ± 0.074; (37 °C) -0.169 ± 0.087.

AAGAAGCAAUAUUACGGGCC: the “self-splicing fitness (ln)” value is -2.42 ± 0.22 (30 °C) and -1.52 ± 0.21 (37 °C).

In the case of GCGCAGCAAUAUUACGUUCU, the “self-splicing fitness (ln)” value is -0.657 ± 0.093 (30 °C) and 0.0134 ± 0.11 (37 °C).

Take GACAAGCAAUAUUACGACAG: the “self-splicing fitness (ln)” value runs as follows: (30 °C) -4.68 ± 0.22; (37 °C) -2.63 ± 0.14.

In the case of GCCCAGCAAUAUUACGAUAA, the “self-splicing fitness (ln)” value (30 °C) was -2.26 ± 0.11 and the “self-splicing fitness (ln)” value (37 °C) is -1.57 ± 0.13.

As to CGUAAGCAAUAUUACGUCGU, the “self-splicing fitness (ln)” value is -3.41 ± 0.16 (30 °C) and -1.63 ± 0.15 (37 °C).

As for UUUGAGCAAUAUUACGUCUA, the “self-splicing fitness (ln)” value (30 °C) is -1.05 ± 0.2 and the “self-splicing fitness (ln)” value (37 °C) was -1.06 ± 0.21.
